# B1: canavalin (natural protein, Canavalia ensiformis (jack bean), UniProt P50477 27-445, looked up)
# chain: HSGHSGGEAEDESEESRAQNNPYLFRSNKFLTLFKNQHGSLRLLQRFNEDTEKLENLRDYRVLEYCSKPNTLLLPHHSDSDLLVLVLEGQAILVLVNPDGRDTYKLDQGDAIKIQAGTPFYLINPDNNQNLRILKFAITFRRPGTVEDFFLSSTKRLPSYLSAFSKNFLEASYDSPYDEIEQTLLQEEQEGVIVKMPKDQIQEISKHAQSSSRKTLSSQDKPFNLRSRDPIYSNNYGKLYEITPEKNSQLRDLDILLNCLQMNEGALFVPHYNSRATVILVANEGRAEVELVGLEQQQQQGLESMQLRRYAATLSEGDIIVIPSSFPVALKAASDLNMVGIGVNAENNERNFLAGHKENVIRQIPRQVSDLTFPGSGEEVEELLENQKESYFVDGQPRHIDAGGKARRAHLPNLFRTFY
# Biological target: the molecule itself
# Assay: SEC-MALS
protein,measurement,value
B1,stoichiometry N,3

# Reference: article PMC9047656 (ACS Nano, 2022)
